According to article PMC10144703, “Molecular Mechanism of Sirtuin 1 Inhibition by Human Immunodeficiency Virus 1 Tat Protein” (Life, 2023):

What was measured:
[1] = target: T1, human mini-Sirt1 (aa 183-505-(GGGS)2-641-665) (Homo sapiens, UniProt Q96EB6); experiment: FdL assay, mini-Sirt1; assay type: biochemical; conditions: Michaelis–Menten
T1 construct: aa 183-505-(GGGS)2-641-665; made in house; host or cells: E. coli CodonPlus(DE3)
T1 sequence (Q96EB6 with tags, fused parts or gaps limits assumed): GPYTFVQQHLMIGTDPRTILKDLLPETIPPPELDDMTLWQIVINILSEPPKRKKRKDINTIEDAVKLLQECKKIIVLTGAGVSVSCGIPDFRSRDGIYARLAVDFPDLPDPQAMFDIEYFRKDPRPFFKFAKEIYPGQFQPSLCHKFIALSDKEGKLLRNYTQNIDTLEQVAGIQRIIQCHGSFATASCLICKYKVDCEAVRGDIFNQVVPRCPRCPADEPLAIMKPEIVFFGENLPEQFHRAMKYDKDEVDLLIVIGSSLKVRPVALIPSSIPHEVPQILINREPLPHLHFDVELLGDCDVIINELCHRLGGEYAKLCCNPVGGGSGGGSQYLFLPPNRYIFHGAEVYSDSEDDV
Source text: (§1) A human mini-Sirt1 construct (aa 183-505-(GGGS)2-641-665), as described in [27], was generated in a modified pET-19b with a TEV cleavage site. This construct and human full-length Sirt1 (fl-Sirt1) in pET-15b, Sirt1-(183-664) and Sirt1-(214-664) in pET-15b, mini-Sirt1-∆SBD (aa 214-505-(GGGS)2-641-665) and mini-Sirt1-∆ESA (aa 183–505) in a modified pET-19b with TEV cleavage site, Sirt2-(43-356) in a modified pET-19b with a His6-Sumo tag, Sirt3-(93-399) in a modified pET-32a with Trx-His6 tag and TEV cleavage site, hSirt3-(118-399) in pVFT3S (Sungkyunkwan University, Seoul, Republic of Korea) with His6-Trx tag and TEV cleavage site, Sirt5-(34-302) in pET-151/D-TOPO, and Sirt6-(1-355) in pQE80L.1 were purified as described. Shortly, proteins were expressed at 20 °C (mini-Sirt1 constructs at 16 °C) in E. coli CodonPlus(DE3), cell lysates were cleared by centrifugation, and proteins were purified via affinity chromatography using a nickel NTA column. After digestion with thrombin or TEV protease, proteins were re-run over the nickel NTA column, pooled, and concentrated. The samples were, then, subjected either directly to size exclusion chromatography in 50 mM Tris/HCl, pH 8.0, 150 mM NaCl, 1 mM TCEP, or to an ion exchange chromatography followed by size exclusion chromatography. […]

[2] = system: mini-Sirt1-∆SBD (aa 214-505-(GGGS)2-641-665); experiment: Inhibition of mini-Sirt1-∆SBD (ac-p53 substrate); assay type: biochemical, human; conditions: dose-dependent, 100 µM ac-p53, n = 3; relative to mini-Sirt1
Source text: (§2) A human mini-Sirt1 construct (aa 183-505-(GGGS)2-641-665), as described in [27], was generated in a modified pET-19b with a TEV cleavage site. This construct and human full-length Sirt1 (fl-Sirt1) in pET-15b, Sirt1-(183-664) and Sirt1-(214-664) in pET-15b, mini-Sirt1-∆SBD (aa 214-505-(GGGS)2-641-665) and mini-Sirt1-∆ESA (aa 183–505) in a modified pET-19b with TEV cleavage site, Sirt2-(43-356) in a modified pET-19b with a His6-Sumo tag, Sirt3-(93-399) in a modified pET-32a with Trx-His6 tag and TEV cleavage site, hSirt3-(118-399) in pVFT3S (Sungkyunkwan University, Seoul, Republic of Korea) with His6-Trx tag and TEV cleavage site, Sirt5-(34-302) in pET-151/D-TOPO, and Sirt6-(1-355) in pQE80L.1 were purified as described. […]
(§3) Continuous coupled enzymatic sirtuin activity assays were conducted as described. […] Reactions were monitored for 1 h at room temperature by absorption spectroscopy at 340 nm in a UV/vis plate reader (BioTek). The slope for the linear range (typically 5–25 min) was evaluated after background correction with measurements without NAD^+. Additional control reactions were run by either omitting enzyme or omitting peptide substrate to ensure that the signal measured reflects the NAD+-dependent deacetylation activity of the sirtuin.

[3] = system: mini-Sirt1-∆ESA (aa 183–505); experiment: Inhibition of mini-Sirt1-∆ESA (ac-p53 substrate); assay type: biochemical, human; conditions: dose-dependent, 100 µM ac-p53, n = 3; relative to mini-Sirt1
Source text: as §2, §3

Sirt3-(93-399) = target: T2, Sirt3-(93-399) (Homo sapiens, UniProt Q9NTG7); experiment: FdL assay, Sirt3; assay type: biochemical; conditions: increasing Tat-Cys^−, n = 3-6
T2 construct: Sirt3-(93-399) in a modified pET-32a; Trx-His6 (cleaved yes); made in house; host or cells: E. coli CodonPlus(DE3)
T2 sequence (Q9NTG7 93-399): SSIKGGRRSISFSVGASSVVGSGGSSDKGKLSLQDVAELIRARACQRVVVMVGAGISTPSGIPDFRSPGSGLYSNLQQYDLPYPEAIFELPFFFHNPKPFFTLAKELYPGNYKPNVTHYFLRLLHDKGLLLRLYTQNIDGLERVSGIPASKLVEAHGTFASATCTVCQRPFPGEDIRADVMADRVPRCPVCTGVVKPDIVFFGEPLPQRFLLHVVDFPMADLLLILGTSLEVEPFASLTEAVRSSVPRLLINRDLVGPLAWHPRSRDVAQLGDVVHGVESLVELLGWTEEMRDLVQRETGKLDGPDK
Source text: as §1

human Sirt2 = target: T3, human Sirt2 (Homo sapiens, UniProt Q8IXJ6); experiment: Continuous coupled enzymatic assay, Sirt2; assay type: biochemical; conditions: 65 μM Tat-Cys^−, acetylated peptide at substrate Km, n = 3
T3 construct: Sirt2-(43-356) in a modified pET-19b; His6-Sumo; made in house; host or cells: E. coli CodonPlus(DE3)
T3 sequence (Q8IXJ6 43-356): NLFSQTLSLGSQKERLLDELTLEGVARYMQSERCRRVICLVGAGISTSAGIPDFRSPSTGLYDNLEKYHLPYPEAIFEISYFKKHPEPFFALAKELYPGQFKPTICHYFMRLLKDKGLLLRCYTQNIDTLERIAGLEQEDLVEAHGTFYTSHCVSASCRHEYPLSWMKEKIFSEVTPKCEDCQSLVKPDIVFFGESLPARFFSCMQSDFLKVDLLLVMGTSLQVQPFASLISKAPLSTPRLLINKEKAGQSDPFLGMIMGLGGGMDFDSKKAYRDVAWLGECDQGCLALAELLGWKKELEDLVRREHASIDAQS
Source text: as §2, §3

B1: Tat-Cys^−: Recombinant 86-residue HIV1 Zaire 2 Tat with C22S, C25A, C27A, C30S, C31A, C34S, and C37A (protein)
chain: MDPVDPNIEPWNHPGSQPKTASNRAHAKKSAYHSQVAFITKGLGISYGRKKRRQRRRPSQGGQTHQDPIPKQPSSQPRGDPTGPKE
- inhibition mode vs acetylated substrate peptide, Sirt1 ([1]; FdL-1, mini-Sirt1, increasing Tat-Cys^−, n = 3): competitive with the acetylated substrate peptide
- inhibition mode vs NAD^+, Sirt1 ([1]; NAD^+, mini-Sirt1, increasing Tat-Cys^−, n = 3–6): non-competitive with NAD^+
- inhibitory effects, mini-Sirt1-∆SBD [2]: unchanged inhibitory effects
- inhibitory effects, mini-Sirt1-∆ESA [3]: unchanged inhibitory effects
- inhibition mode vs acetylated substrate peptide, Sirt3 (Sirt3-(93-399); FdL-1, Sirt3-(93-399)): competitive with the acetylated substrate peptide
- inhibition mode vs NAD^+, Sirt3 (Sirt3-(93-399); NAD^+ titration, Sirt3-(93-399)): non-competitive with NAD^+
- inhibitory effect on Sirt2, continuous assay (human Sirt2): pronounced inhibitory effects
